Here are results for one substance from paper PMC7150784.

Experiment [1] addresses amphibian alpha-1 nAChR orthosteric site mimotope (Xenopus laevis). Kind of experiment: BLI; Octet RED 96; […] (1 µg/mL) […]; running buffer 1X DPBS with 0.1% BSA and 0.05% Tween-20; […], in triplicate. For orientation: Biolayer interferometry detects binding as a change in optical thickness at a sensor tip.
For experiment [2], the target named is lizard alpha-1 nAChR orthosteric site mimotope. Kind of experiment: BLI.

“alpha-cobratoxin (from UniProt P01391 1-71) (natural protein)”: in experiment [1], the AUC (potency) above that on the lizard mimotope turned out to be 50% and the AUC (potency) above that on the rodent mimotope came out at 98%. This substance had an AUC (potency) above that on the rodent mimotope in experiment [2] of 30%.
